From the supplement of paper PMC7125110 come the findings set out here.

± gives the standard error. Fewer inactive variants are shown than the library holds. Where only a bound is given, the exact number is not on record here.

Sequences and labels used below:
B1: glmS ribozyme (parent)
chain: AUAAAAGCGCCAGAACUACAGAAAUGUAGUUGACGAGGAGGAGGUUUAUCGAAUUUUCGGCGGAUGCCUCCAAA

Holding throughout (conditions): with glucosamine-6-phosphate
Series [1] covers variants of B1. In words: self-cleavage kobs at 40 uM GlcN6P; higher = faster cleavage; RNA array. In outline: (§1)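 On sequenced MiSeq chips, barcoded ribozyme variants were made in situ by E. coli RNA polymerase and followed at 37 °C through a hybridised Cy3 probe. Glucosamine-6-phosphate was flowed in at 40 μM to 10 mM in HEPES/KCl/Mg(OAc)2 buffer. Exponential fits to normalised per-tile medians gave kobs, and weighted Michaelis–Menten fits gave kcat and KM.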

Series [2] covers variants of B1. In words: self-cleavage kobs at 160 uM GlcN6P; higher = faster cleavage; RNA array. In a few lines: as §1
Series [3] covers variants of B1. In words: self-cleavage kobs at 2500 uM GlcN6P; higher = faster cleavage; RNA array. In outline:
as §1

Variants of B1 are the subject of series [4]. The series can be described thus: self-cleavage kobs at 10000 uM GlcN6P; higher = faster cleavage; RNA array. In a few lines:
as §1

Variants of B1 are the subject of series [5]. In words: self-cleavage kobs at 640 uM GlcN6P; higher = faster cleavage; RNA array. In outline:
as §1

For the variant AUAAAAGCGCCAGAACUACAGAAAUGUAGUUGAUGAGGAUGAGGUUUAUCGAAUUUUCGGCGGAUGCCUCCAAA [C34U G40U], the “self-cleavage kobs at 40 uM GlcN6P” value with glucosamine-6-phosphate [1] is less than 1e-05 s⁻¹. The “self-cleavage kobs at 160 uM GlcN6P” value in the series with glucosamine-6-phosphate [2] was less than 1e-05 s⁻¹. In addition, the “self-cleavage kobs at 2500 uM GlcN6P” value with glucosamine-6-phosphate [3] was less than 1e-05 s⁻¹. For the same variant, in the series with glucosamine-6-phosphate [4], the “self-cleavage kobs at 10000 uM GlcN6P” value was less than 1e-05 s⁻¹.

On to AUAAAAUCGCCAGAACUACAGAAAUGUAGUUGACGAGGAGGAGGUUUAUCGAAUUUUCGGCGGAUGCCUGGAAA [G7U C70G C71G], for which the “self-cleavage kobs at 40 uM GlcN6P” value with glucosamine-6-phosphate [1] is 4.02e-05 ± 2e-05 s⁻¹. Further, the “self-cleavage kobs at 640 uM GlcN6P” value with glucosamine-6-phosphate [5] was 0.000251 ± 8.1e-05 s⁻¹.

For AUAAAAGCACCAGAACUACAGAAAUGUAGUUGACGAGGAGGAGGUUUAUCGAAUUUUCGGCGGAUGCCUCGAAA [G9A C71G], the “self-cleavage kobs at 40 uM GlcN6P” value with glucosamine-6-phosphate [1] is less than 1e-05 s⁻¹. Further, the “self-cleavage kobs at 160 uM GlcN6P” value in the series with glucosamine-6-phosphate [2] was less than 1e-05 s⁻¹. The “self-cleavage kobs at 640 uM GlcN6P” value in the series with glucosamine-6-phosphate [5] is less than 1e-05 s⁻¹. The “self-cleavage kobs at 2500 uM GlcN6P” value in the series with glucosamine-6-phosphate [3] was less than 1e-05 s⁻¹. In addition, the “self-cleavage kobs at 10000 uM GlcN6P” value with glucosamine-6-phosphate [4] was less than 1e-05 s⁻¹.

AUAAAAGCGCCAGAACUACAGAAAUGUAGUUUACGAGGAGGUGGUUUAUCGAAUUUUUGGCGGAUGCCUCCAAA [G32U A42U C58U]: the “self-cleavage kobs at 40 uM GlcN6P” value with glucosamine-6-phosphate [1] is less than 1e-05 s⁻¹. Further, the “self-cleavage kobs at 10000 uM GlcN6P” value with glucosamine-6-phosphate [4] was 3.73e-05 ± 1.3e-05 s⁻¹.

In the case of AUAAAAGCGCCAGAACUACAGAAAUGUAGUUGACGAGGAGGAGGUUUAUCGAAUUUUCGGUGGAUGACUUCAAA [C61U C67A C70U], the “self-cleavage kobs at 40 uM GlcN6P” value in the series with glucosamine-6-phosphate [1] was 4.32e-05 ± 1.7e-05 s⁻¹.

Turning to AUAAAAGCGCCAGAACUACAGAAAUGUAGUUGACGAGGAGUAGGUUUAUCGAAUUUUCGUCGGAUGCCCCCAAA [G41U G60U U69C], the “self-cleavage kobs at 40 uM GlcN6P” value in the series with glucosamine-6-phosphate [1] was less than 1e-05 s⁻¹. Moreover, the “self-cleavage kobs at 10000 uM GlcN6P” value with glucosamine-6-phosphate [4] was less than 1e-05 s⁻¹.

Regarding AUAAAAGCGCCAGAACUACAGAAAUGUAGUUGACGAGGAGGAGGUUUUUCGAAUUUUCGACGGAUGCCUCCAAA [A48U G60A], the “self-cleavage kobs at 40 uM GlcN6P” value with glucosamine-6-phosphate [1] was less than 1e-05 s⁻¹. The “self-cleavage kobs at 160 uM GlcN6P” value with glucosamine-6-phosphate [2] was less than 1e-05 s⁻¹. The “self-cleavage kobs at 640 uM GlcN6P” value with glucosamine-6-phosphate [5] is less than 1e-05 s⁻¹. The “self-cleavage kobs at 2500 uM GlcN6P” value with glucosamine-6-phosphate [3] was less than 1e-05 s⁻¹. Moreover, the “self-cleavage kobs at 10000 uM GlcN6P” value with glucosamine-6-phosphate [4] is less than 1e-05 s⁻¹.

As for AUAAAAGCGCCAGAACUACAGAAAUGUACUUGACGAGUAGGAGGUUUCUCGAAUUUUCGGCGGAUGCCUCCAAA [G29C G38U A48C], the “self-cleavage kobs at 40 uM GlcN6P” value with glucosamine-6-phosphate [1] is less than 1e-05 s⁻¹. Also, the “self-cleavage kobs at 640 uM GlcN6P” value with glucosamine-6-phosphate [5] was less than 1e-05 s⁻¹. Further, the “self-cleavage kobs at 10000 uM GlcN6P” value with glucosamine-6-phosphate [4] is less than 1e-05 s⁻¹.

For AUAAAAGCGCCAGAACUACAGAAAUGUAGUUUACAAGGAGGAGGUUUAUCGAAUUUCCGGCGGAUGCCUCCAAA [G32U G35A U57C], the “self-cleavage kobs at 40 uM GlcN6P” value in the series with glucosamine-6-phosphate [1] was less than 1e-05 s⁻¹. Moreover, the “self-cleavage kobs at 160 uM GlcN6P” value in the series with glucosamine-6-phosphate [2] was less than 1e-05 s⁻¹.

Consider AUAAAAGCGCGAGAACUACAGAAAUGUAGUUGACGAGGUGGAGGUUUAUGGAAUUUUCGGCGGAUGCCUCCAAA [C11G A39U C50G], for which the “self-cleavage kobs at 40 uM GlcN6P” value with glucosamine-6-phosphate [1] was less than 1e-05 s⁻¹. Further, in the series with glucosamine-6-phosphate [2], the “self-cleavage kobs at 160 uM GlcN6P” value was less than 1e-05 s⁻¹. The “self-cleavage kobs at 640 uM GlcN6P” value with glucosamine-6-phosphate [5] was less than 1e-05 s⁻¹. Besides, the “self-cleavage kobs at 2500 uM GlcN6P” value in the series with glucosamine-6-phosphate [3] was less than 1e-05 s⁻¹. The “self-cleavage kobs at 10000 uM GlcN6P” value with glucosamine-6-phosphate [4] was less than 1e-05 s⁻¹.

Turning to AUAAAAGCGCCAGAACUACAGAAAUGUAGUUGACUAGGAGGAGGUUUAUCGCAUUUUCGGCGGAUGCCUCCAAA [G35U A52C], in the series with glucosamine-6-phosphate [1], the “self-cleavage kobs at 40 uM GlcN6P” value is less than 1e-05 s⁻¹. In addition, the “self-cleavage kobs at 10000 uM GlcN6P” value in the series with glucosamine-6-phosphate [4] is less than 1e-05 s⁻¹.

As for AUAAAAGCGCCAGAACUACAGAAAUGUAGUUGACGAAGAGGAGGCUUAUCGAAUUUUUGGGGGAUGCCUCCAAA [G37A U45C C58U C61G], the “self-cleavage kobs at 40 uM GlcN6P” value in the series with glucosamine-6-phosphate [1] is less than 1e-05 s⁻¹.

For AUAAAAGCGCGUGAACUACAGAAAUGUAGUUGACGAGGAGGAGGUUUAUCGAAUUUUCGGCGGAUGCCUCCAAA [C11G A12U], in the series with glucosamine-6-phosphate [1], the “self-cleavage kobs at 40 uM GlcN6P” value is less than 1e-05 s⁻¹. In addition, in the series with glucosamine-6-phosphate [3], the “self-cleavage kobs at 2500 uM GlcN6P” value is less than 1e-05 s⁻¹.

Consider AUAAAAGCGCGAGAACUACAGAAAUGUAGUUGACGAGGAGGAGGUUUAUCGAAUUUUCGGCAGAUGCCUCCAAA [C11G G62A], for which the “self-cleavage kobs at 40 uM GlcN6P” value with glucosamine-6-phosphate [1] was less than 1e-05 s⁻¹.
